The source of these data is US20260148804A1 (NANJING GENSCRIPT BIOTECH, published 2026).

This test has as its target T1, recombinant TNFRSF9 protein (Homo sapiens (Human), UniProt Q07011 24-186).
T1 construct: also called 4-1BB; antigen
As to the kind of experiment: indirect ELISA, plate coated with 0.5 ug/ml recombinant TNFRSF9 protein, antibody titrated 3-fold from 1 ug/ml. (In an ELISA, binding on a coated surface is turned into a signal by an enzyme label.)

Protocol: The antibody affinity detection method was an enzyme-linked immunosorbent assay (ELISA) based on an indirect method. Indirect ELISA was used for evaluating the ability of the purified antibody to bind the antigen TNFRSF9 protein. The specific steps were as follows: the ELISA plate was coated with 0.5 μg/ml recombinant TNFRSF9 protein in PBS at 100 μl/well at 4° C. overnight. The plate was washed with PBS-T (0.05% Tween) and blocked with 250 μl/well of PBST containing 1% BSA at 37° C. for 2 hours. Subsequently, the blocking solution was discarded, and 100 μl of the 1 μg/ml purified antibody was added to the first well and 3-fold diluted in a gradient to prepare a total of 11 serial test concentrations, and additionally a blank well was prepared. The plate was then incubated at 37° C. for 1 hour. […] The plate was washed four times with PBST, a TMB color development solution (GenScript) was then added, and the plate was incubated in the dark at 25° C. for 15 minutes. […] The plate was read at 450 nm using a microplate reader.

B1: 81E11WTH (antibody, V domains shown)
VH: QSVKESEGGLFKPTDTLTLACTVSGFSLSYNAITWVRQAPGNGLEWIGVINYDGTTVYASWAKSRSTITRNTNLNTVTLKMTSLTAADTATYFCARNFNIWGPGTLVTVSS
VL: AAVLTQTPSPVSVTVGGTVTINCQASQSVDNNNYLAWFQQKPGQPPKQLIYSASTLASGVSSRFKGSGSGTQFTLTISGVQCDDAATYYCLGEFSASSGDWNAFGGGTEVVVK
notes: also called control 81E11WTH
The EC50 is the concentration needed to bring the measured effect to its halfway point. For the molecule B1, the EC50 was 2.6 ng/mL.
